Laboratory results from patent US20260216365A1, “ANTIBODY-DRUG CONJUGATES AGAINST THE RECEPTOR TYROSINE KINASE EPHA5” (Rutgers, The State University of New Jersey, priority 2021, published 2026).
Where “and” joins values, the source holds several entries; their conditions need not be identical. Equal values may be shown once. Blank lines part the entries; values can stand above or below the molecule they belong to.

Legend:
[1] = molecular target: T1, recombinant human EphA5 (rhEphA5) antigen (Homo sapiens, UniProt P54756); assay: Biacore multi-cycle kinetic analysis of purified antibodies, 1:1 model; type: binding; conditions: for binding to EphA5 relative to the chimeric antibody (VH0/VK0): purified antibodies, multi-cycle kinetics
T1 construct: purchased R and D systems 3036-A5
Description: In order to assess the binding of the six lead humanized variants to rhEphA5 antigen, multi-cycle kinetic analysis (FIG. 68) was performed on purified material. Kinetic experiments were performed at 25° C. on a Biacore T200 running Biacore T200 Control software V2.0.1 and Evaluation software V3.0 (GE Healthcare, Uppsala, Sweden).
HBS-P+ (GE Healthcare, Uppsala, Sweden), supplemented with 1% BSA w/v (Sigma, Dorset, UK) was used as running buffer as well as for ligand and analyte dilutions. Purified lead antibodies were diluted to 0.5 μg/mL in running buffer and at the start of each cycle, loaded onto Fc2, Fc3 and Fc4 of an anti-human IgG CM5 sensor chip (GE Healthcare, Little Chalfont, UK). Antibodies were captured at a flow rate of 10 μl/min to give an immobilization level (RL) of ~50 RU. The surface was then allowed to stabilize.
Multi-cycle kinetic data was obtained using recombinant EphA5 as the analytes injected at a flow rate of 30 μl/min to minimize any potential mass transfer effects. A five point, three-fold dilution range from 1.11 nM to 270 nM of EphA5 was prepared in running buffer. For each concentration, the association phases were monitored for 210 seconds and the dissociation phase was measured for 900 seconds. Regeneration of the sensor chip surface was conducted between cycles using two injections of 3 M MgCl2. Multiple repeats of a blank and of EphA5 were programmed into the kinetic run in order to check the stability of both the surface and analyte over the kinetic cycles.
The signal from the reference channel Fc1 (no IgG captured) was subtracted from that of Fc2, Fc3 and Fc4 to correct for bulk effect and differences in non-specific binding to a reference surface. The signal from each IgG blank run (IgG captured but no antigen) was subtracted to correct for differences in surface stability. The double referenced sensorgrams were fitted with the Langmuir (1:1) binding model where the closeness of fit of the data to the model is evaluated using the Chi square value which describes the deviation between the experimental and fitted (observed and expected) curves. The fitting algorithm seeks to minimize the Chi square value.
A summary of the kinetic constants determined from the 1:1 model fitted curves is shown in FIG. 19 with fitted curves shown in FIG. 20.

[2] = Thermal ramp stability (UNcle, Sypro Orange fluorescence and static light scattering); type: physicochemical
From the text: Thermal ramp stability experiments (Tm and Tagg) are well established methods for ranking proteins and formulations for stability. A protein's denaturation profile provides information about its thermal stability and represents a structural ‘fingerprint’ for assessing structural and formulation buffer modifications. A widely used measure of the thermal structural stability of a protein is the temperature at which it unfolds from the native state to a denatured state. For many proteins, this unfolding process occurs over a narrow temperature range and the mid-point of this transition is termed ‘melting temperature’ or ‘Tm’. To determine the melting temperature of a protein, UNcle measures the fluorescence of Sypro Orange (which binds to exposed hydrophobic regions of proteins) as the protein undergoes conformational changes.
Samples for each variant were formulated in PBS and Sypro Orange at a final concentration of 1 mg/mL. 9 μL of each sample mixture was loaded in duplicate into UNi microcuvettes. Samples were subjected to a thermal ramp from 25-95° C., with a ramp rate of 0.3° C./minute and excitation at 473 nm. Full emission spectra were collected from 250-720 nm, and the area under the curve between 510-680 nm was used to calculate the inflection points of the transition curves (Tonset and Tm). Monitoring of static light scattering (SLS) at 473 nm allowed the detection of protein aggregation, and Tagg (onset of aggregation) was calculated from the resulting SLS profiles. Thermal stability values determined lie in a broad range from 57.9 to 69.6° C. (Tm1), 55.1 to 65.2° C. (Tonset) and 65.6 to 70.2° C. (Tagg) with the humanized leads generally showing improved profiles when compared to the chimeric antibody. […] All humanized antibodies appear to have a higher Tm1, Tonset and Tagg compared to the chimeric antibody.

[3] = molecular target: T2, H460 cell line stably expressing EphA5 (Homo sapiens, UniProt P54756); assay: Flow cytometry analysis of cell binding, EphA5-positive cells; conditions: starting 10 μg/ml, four-fold serial dilution, 4° C. 30 minutes
T2 construct: A H460 cell line stably expressing EphA5 (provided by Rutgers) was used; endogenous in cells; host or cells: H460 human lung carcinoma cells (provided by Rutgers)
Description: (§1) A H460 cell line stably expressing EphA5 (provided by Rutgers) was used, alongside H226 cells as a negative control, to test for antibody binding in a flow cytometry assay. The cell lines were first assessed for target expression using 10 μg/ml of the murine 11C12 provided by Rutgers) and MolgG1 non-binging control (Biolegend, California, US). Goat anti-mouse Alexa Fluor 647 (Thermo Fisher, Loughborough, UK) was used for antibody detection.
(§2) For cell binding assays, both cell lines were resuspended in FACS buffer (PBS+1% BSA+0.1% sodium azide) and seeded in 96 well U bottom plates at 1×105 (100 μl) cells per well. The chimeric and six purified humanized variants were tested in the assay alongside the 11C12 murine positive control, MolgG1 and HulgG1 non-binding controls. Samples were prepared at a starting concentration of 10 μg/ml in FACS buffer and underwent a four-fold seven point serial dilution for testing with H460 cells and a three-fold three point serial dilution for the H226 cells. […] Median fluorescence intensity (MFI) was measured using an Attune NxT Flow Cytometer (Thermo Fisher, Loughborough, UK) and 10,000 gated events were acquired per sample. For data analysis, live cell populations were gated based on the forward and side scatter dot plot allowing the Alexa Fluor 647 MFI values to be measured in the RL1 channel.

H226 cells (EphA5−) = assay: Flow cytometry analysis of cell binding, EphA5-negative control cells; set-up: species or system human; conditions: starting 10 μg/ml, three-fold serial dilution
Description: as §1, §2

T1 sequence (P54756 25-573 limits assumed): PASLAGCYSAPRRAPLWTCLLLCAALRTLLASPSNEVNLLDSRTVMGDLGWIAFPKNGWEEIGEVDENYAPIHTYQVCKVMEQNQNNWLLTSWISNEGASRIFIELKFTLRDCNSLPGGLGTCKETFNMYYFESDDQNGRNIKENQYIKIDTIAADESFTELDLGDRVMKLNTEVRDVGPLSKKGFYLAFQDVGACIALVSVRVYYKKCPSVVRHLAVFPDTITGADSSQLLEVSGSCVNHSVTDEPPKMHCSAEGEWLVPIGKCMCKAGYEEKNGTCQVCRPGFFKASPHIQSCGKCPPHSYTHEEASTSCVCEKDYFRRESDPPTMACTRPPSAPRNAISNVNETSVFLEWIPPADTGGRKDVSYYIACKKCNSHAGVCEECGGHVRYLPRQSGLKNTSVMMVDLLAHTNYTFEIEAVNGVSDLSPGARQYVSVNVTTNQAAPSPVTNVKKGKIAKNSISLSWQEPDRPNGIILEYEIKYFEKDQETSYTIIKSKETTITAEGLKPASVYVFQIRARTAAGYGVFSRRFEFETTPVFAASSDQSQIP
T2 sequence (P54756 25-1037): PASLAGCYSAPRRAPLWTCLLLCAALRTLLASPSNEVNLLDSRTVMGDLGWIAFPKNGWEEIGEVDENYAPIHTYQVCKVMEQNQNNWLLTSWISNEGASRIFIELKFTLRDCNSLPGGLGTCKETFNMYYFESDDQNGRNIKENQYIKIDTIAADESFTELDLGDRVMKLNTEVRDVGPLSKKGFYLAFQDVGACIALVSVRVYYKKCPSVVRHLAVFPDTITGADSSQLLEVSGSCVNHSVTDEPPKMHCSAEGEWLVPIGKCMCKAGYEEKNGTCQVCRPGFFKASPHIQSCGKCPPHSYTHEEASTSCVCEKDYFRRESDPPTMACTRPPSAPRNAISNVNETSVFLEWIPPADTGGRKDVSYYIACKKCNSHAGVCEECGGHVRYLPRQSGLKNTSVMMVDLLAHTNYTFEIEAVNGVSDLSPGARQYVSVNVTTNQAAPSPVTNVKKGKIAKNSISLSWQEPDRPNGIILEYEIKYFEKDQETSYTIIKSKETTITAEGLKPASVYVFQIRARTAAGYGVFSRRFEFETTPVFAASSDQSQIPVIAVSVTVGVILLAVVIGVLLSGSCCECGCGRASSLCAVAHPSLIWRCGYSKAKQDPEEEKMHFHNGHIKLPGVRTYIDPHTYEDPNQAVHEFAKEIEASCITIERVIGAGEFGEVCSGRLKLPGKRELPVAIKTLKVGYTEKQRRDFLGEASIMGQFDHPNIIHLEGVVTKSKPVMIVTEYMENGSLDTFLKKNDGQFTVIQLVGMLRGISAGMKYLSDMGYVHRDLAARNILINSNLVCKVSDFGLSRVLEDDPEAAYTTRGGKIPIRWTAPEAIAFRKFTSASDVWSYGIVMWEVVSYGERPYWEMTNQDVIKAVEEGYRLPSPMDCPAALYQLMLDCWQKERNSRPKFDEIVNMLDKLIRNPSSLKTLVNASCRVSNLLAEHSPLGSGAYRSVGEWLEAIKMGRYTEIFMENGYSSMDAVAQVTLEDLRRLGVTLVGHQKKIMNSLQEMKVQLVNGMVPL

B3: VH0/VK0: chimeric anti-EphA5 antibody, murine 11C12 variable regions (VH SEQ ID NO:1, VL SEQ ID NO:8), human IgG1/kappa constant regions (antibody, V domains shown)
VH: EVTLKESGGGLVQPGGSRKLSCAASGFTFSTFGIHWVRQAPEKGLEWVAYISGASTTIYYADTVKGRFTISRDNPKNTLFLQMTSLRSEDTAMYYCARYGTSFPYGLDYWGQGTSVTVSS
VL: DIVMTQSPGSLAVSLGQRATISCKASQSVDYDGDSYMNWYQQKPGQPPKLLIYGASNLESGIPARFSGSGSGTDFTLNIHPVEEEDAASYYCQQSNEDPFTFGSGTKLEIK
modifications: human IgG1/kappa constant regions without entry
kd ([1]; Biacore T200, 25° C., IgG captured on anti-human IgG chip): 0.0015 s⁻¹
RMAX ([1]; fitted 1:1 model): 47.8
Average Tm2 (° C.) ([2]; average of duplicates): 65.83 °C
Average Tonset (° C.) ([2]; average of duplicates): 55.1 °C
Average Tm1 (° C.) ([2]; average of duplicates, 1 mg/mL in PBS): 57.9 °C
Average Tagg 473 (° C.) ([2]; average of duplicates, SLS at 473 nm): 65.6 °C
Tonset (° C.) ([2]; single replicate): 54.92 °C and 55.23 °C
Tm2 (° C.) ([2]; single replicate, 1 mg/mL in PBS): 65.83 °C
Tm1 (° C.) ([2]; single replicate, 1 mg/mL in PBS, ramp 25-95° C.): 57.83 °C and 57.87 °C
Tagg 473 (° C.) ([2]; single replicate, SLS at 473 nm): 65.72 °C and 65.60 °C
number of thermal transitions detected ([2]; thermal ramp 25-95° C.): two transitions

B4: 11C12: anti-human EphA5 monoclonal murine antibody, parental antibody and positive control (antibody, V domains shown)
VH: EVTLKESGGGLVQPGGSRKLSCAASGFTFSTFGIHWVRQAPEKGLEWVAYISGASTTIYYADTVKGRFTISRDNPKNTLFLQMTSLRSEDTAMYYCARYGTSFPYGLDYWGQGTSVTVSS
VL: DIVMTQSPGSLAVSLGQRATISCKASQSVDYDGDSYMNWYQQKPGQPPKLLIYGASNLESGIPARFSGSGSGTDFTLNIHPVEEEDAASYYCQQSNEDPFTFGSGTKLEIK
binding to H460 (EphA5+) cells, MFI dose response [3]: bound to the positive cell line in a concentration dependent manner
binding to H226 (EphA5−) cells (H226 cells (EphA5−)): no binding

B5: VH4/VK4: humanized anti-EphA5 IgG1/kappa antibody; VH SEQ ID NO:5, VL SEQ ID NO:12 (antibody, V domains shown)
VH: EVQLVESGGGLVQPGGSLKLSCAASGFTFSTFGIHWVRQAPGKGLEWVAYISGASTTIYYADTVKGRFTISRDNSKNTLYLQMNSLRAEDTAVYYCARYGTSFPYGLDYWGQGTLVTVSS
VL: DIVMTQSPDSLAVSLGERATINCKSSQSVDYDGDSYMNWYQQKPGKAPKLLIYGASNLESGIPDRFSGSGSGTDFTLTISRLEPEDAASYYCQQSNEDPFTFGQGTKLEIK
binding to EphA5 relative to the chimeric antibody (VH0/VK0) [1]: within two-fold of the chimeric antibody

B6: VH3/VK4: humanized anti-EphA5 IgG1/kappa antibody; VH SEQ ID NO:4, VL SEQ ID NO:12 (antibody, V domains shown)
VH: EVQLVESGGGLVQPGGSLKLSCAASGFTFSTFGIHWVRQAPGKGLEWVAYISGASTTIYYADTVKGRFTISRDNSKNTLYLQMNSLRSEDTAMYYCARYGTSFPYGLDYWGQGTLVTVSS
VL: DIVMTQSPDSLAVSLGERATINCKSSQSVDYDGDSYMNWYQQKPGKAPKLLIYGASNLESGIPDRFSGSGSGTDFTLTISRLEPEDAASYYCQQSNEDPFTFGQGTKLEIK
binding to EphA5 relative to the chimeric antibody (VH0/VK0) [1]: within two-fold of the chimeric antibody

Further lines, with some results ahead:

binding to EphA5 relative to the chimeric antibody (VH0/VK0) [1]: within two-fold of the chimeric antibody
B1: VH5/VK4: humanized anti-EphA5 IgG1/kappa antibody; VH SEQ ID NO:6, VL SEQ ID NO:12 (antibody, V domains shown)
VH: EVQLVESGGGLVQPGGSLKLSCAASGFTFSTFGIHWVRQAPGKGLEWVAYISGASTTIYYADSVKGRFTISRDNSKNTLYLQMNSLRAEDTAVYYCARYGTSFPYGLDYWGQGTLVTVSS
VL: DIVMTQSPDSLAVSLGERATINCKSSQSVDYDGDSYMNWYQQKPGKAPKLLIYGASNLESGIPDRFSGSGSGTDFTLTISRLEPEDAASYYCQQSNEDPFTFGQGTKLEIK
ranking by Tagg (SLS profiles) ([2]; among the chimeric and six lead humanized variants): highest Tagg values

binding to EphA5 relative to the chimeric antibody (VH0/VK0) [1]: within two-fold of the chimeric antibody
B2: VH5/VK2: humanized anti-EphA5 IgG1/kappa antibody; VH SEQ ID NO:6, VL SEQ ID NO:10 (antibody, V domains shown)
VH: EVQLVESGGGLVQPGGSLKLSCAASGFTFSTFGIHWVRQAPGKGLEWVAYISGASTTIYYADSVKGRFTISRDNSKNTLYLQMNSLRAEDTAVYYCARYGTSFPYGLDYWGQGTLVTVSS
VL: DIVMTQSPDSLAVSLGERATINCKASQSVDYDGDSYMNWYQQKPGKAPKLLIYGASNLESGIPDRFSGSGSGTDFTLTISRLEPEDAASYYCQQSNEDPFTFGQGTKLEIK
